From patent US20240287172A1 (SCIRHOM, published 2024)

T1: hiR2-FL-S607R-T7 (human, UniProt Q6PJF5 1-856)
T1 sequence: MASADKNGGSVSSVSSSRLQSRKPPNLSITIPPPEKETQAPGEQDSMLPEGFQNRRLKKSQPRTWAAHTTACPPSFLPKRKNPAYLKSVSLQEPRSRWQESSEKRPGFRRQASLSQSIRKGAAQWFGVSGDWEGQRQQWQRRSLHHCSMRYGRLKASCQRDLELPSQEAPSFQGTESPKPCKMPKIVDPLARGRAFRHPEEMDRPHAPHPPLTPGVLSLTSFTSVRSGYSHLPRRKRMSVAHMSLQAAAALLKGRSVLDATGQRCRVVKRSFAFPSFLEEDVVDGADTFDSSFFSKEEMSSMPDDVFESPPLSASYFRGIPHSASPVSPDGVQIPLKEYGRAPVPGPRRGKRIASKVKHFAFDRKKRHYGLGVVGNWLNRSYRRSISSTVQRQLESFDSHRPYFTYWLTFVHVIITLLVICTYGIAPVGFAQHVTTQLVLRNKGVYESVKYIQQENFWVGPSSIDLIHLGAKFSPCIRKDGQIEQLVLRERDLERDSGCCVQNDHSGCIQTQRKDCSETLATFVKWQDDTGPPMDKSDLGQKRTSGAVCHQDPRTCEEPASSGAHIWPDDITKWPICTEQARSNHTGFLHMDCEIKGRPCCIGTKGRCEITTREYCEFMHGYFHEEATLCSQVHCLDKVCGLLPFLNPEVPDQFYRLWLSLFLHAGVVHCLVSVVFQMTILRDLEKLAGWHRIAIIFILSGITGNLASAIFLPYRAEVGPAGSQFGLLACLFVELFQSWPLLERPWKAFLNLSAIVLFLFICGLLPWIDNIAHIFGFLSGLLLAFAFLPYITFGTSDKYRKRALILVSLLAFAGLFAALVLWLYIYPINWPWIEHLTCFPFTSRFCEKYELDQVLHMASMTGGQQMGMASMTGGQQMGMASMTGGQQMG


Target: T1, hiR2-FL-S607R-T7
Experiment: FACS, MEF-DKO cells, 3 µg/ml
In short: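 Binding read by flow cytometry after a PE goat anti-mouse IgG F(ab′)2 secondary (1:100, on ice, 1 h, dark). Before that, immortalized MEF-DKO lines carrying single-mutant hiR2-FL-T7 constructs were incubated 1 h on ice with 3 μg/ml antibody or FACS buffer alone.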

Binder	loss of binding vs wild type [%]
antibody 48 (antibody, V domains shown, mouse IgG, kappa light chain; also called clone #48; purified antibody 48) VH: QVQLQQSGTELVRPGTSVKVSCKASGYAFTNYLIEWVKQRPGQGLEWIGVINPGSGFTKYNEKFKGKATLTADKSSSTVYMHLSSLTSEDSAVYFCARGLYRAMDYWGQGTSVTVSS VL: DIQMTQSPASQSASLGESVTITCLASQTIATWLAWYQQKPGKSPQLLIYGATTLADGVPSRFSGGGSGTKFSFKISSLQAEDFVSYYCQQLYSTPYTFGGGTKLEIK	≥ 30
antibody 50 (antibody, V domains shown, mouse IgG, kappa light chain; also called clone #50; purified antibody 50) VH: QVQLQQSGAELVRPGASVKVSCKASGYAFSNYLIEWVKQRPGQGLEWIGVINPGSGFTKYNEKFKGKATLTADKSSSTAYMQLSSLTSEDSAVYFCARGLYRAMDYWGQGTSVTVSS VL: DIQMTQSPASQSASLGESVTITCLASQTIGTWLAWYQQKPGKSPQLLIYAAASLADGVPSRFSGGGSGTKFSFKISSLQAEDFVNYYCQQIYSTPYTFGGGTKLEIK	≥ 30
